Like-named read-outs stand apart in the source and are kept apart here.
Experiments:
[1] = Degree of α-helicity by circular dichroism (CD) spectroscopy; type: physicochemical
[2] = biological target: T1, SARS-CoV-2 S protein RBD RBD (Severe acute respiratory syndrome coronavirus 2), P0DTC2; details: modification not given
[3] = biological target: T1, SARS-CoV-2 S protein RBD RBD (Severe …); details: modification not given; remark: listed apart in the source
[4] = biological target: T1, SARS-CoV-2 S protein RBD RBD (Severe …); details: modification not given; remark: listed apart in the source
[5] = biological target: T1, SARS-CoV-2 S protein RBD RBD (Severe …); details: modification not given; remark: listed apart in the source
[6] = biological target: T1, SARS-CoV-2 S protein RBD RBD (Severe …); details: modification not given; remark: listed apart in the source

With `CC[C@H](C)[C@H](N)C(=O)N[C@@H](CCC(=O)O)C(=O)N[C@@H](CCC(=O)O)C(=O)N[C@@H](CCC(N)=O)C(=O)N[C@@H](C)C(=O)N[C@@H](CCCCN)C(=O)N[C@H](C(=O)N[C@@H](Cc1ccccc1)C(=O)N[C@@H](CC(C)C)C(=O)N[C@@H](CC(=O)O)C(=O)N[C@@H](CCCCNC(=O)CCS)C(=O)N[C@@H](Cc1ccccc1)C(=O)N[C@@H](CC(N)=O)C(=O)N[C@@H](Cc1c[nH]cn1)C(=O)N[C@@H](CCC(N)=O)C(=O)N[C@@H](C)C(=O)N[C@@H](CCC(=O)O)C(=O)N[C@@H](CC(=O)O)C(=O)N[C@@H](CC(C)C)C(=O)N[C@@H](Cc1ccccc1)C(=O)N[C@@H](Cc1ccc(O)cc1)C(=O)N[C@H](CCCCN)C(=O)O)[C@@H](C)O` [h1–Mpa] the “α-Helicity, H2O” value ([1]; solvent H2O) was 6.0%, the “α-Helicity, TFE” value ([1]; solvent trifluoroethanol (TFE)) was 85.3% and the “α-Helicity, WEM” value ([1]; solvent water–ethanol mixture (WEM)) was 37.8%.

Work on NCGDKWSAFLKEQSTLAQMYPLQE [900h2 (64-87)] yielded a Kd [2] of 7220 nM and a Kd [3] of 1700 nM.

With DKWSAFLKEQSTIAQMYPLQECI [h2 (67-89)] the Kd [4] was 2580 nM and the Kd [5] was 40000 nM.

Molecule IEEQAKTFLDKFNHQAEDLFYK [h1-Mpa (21-42)] has a Kd [6] of 1070 nM.

— publication PMC9798946, “Properties and Activity of Peptide Derivatives of ACE2 Cellular Receptor and Their Interaction with SARS-CoV-2 S Protein Receptor-Binding Domain” (Doklady. Biochemistry and Biophysics, 2022)
